# In publication PMC11662940 (Nucleic Acids Research, 2024):
# T1: ScUba4 (Saccharomyces cerevisiae Uba4) (S. cerevisiae, UniProt P38820 1-440)
# T1 sequence: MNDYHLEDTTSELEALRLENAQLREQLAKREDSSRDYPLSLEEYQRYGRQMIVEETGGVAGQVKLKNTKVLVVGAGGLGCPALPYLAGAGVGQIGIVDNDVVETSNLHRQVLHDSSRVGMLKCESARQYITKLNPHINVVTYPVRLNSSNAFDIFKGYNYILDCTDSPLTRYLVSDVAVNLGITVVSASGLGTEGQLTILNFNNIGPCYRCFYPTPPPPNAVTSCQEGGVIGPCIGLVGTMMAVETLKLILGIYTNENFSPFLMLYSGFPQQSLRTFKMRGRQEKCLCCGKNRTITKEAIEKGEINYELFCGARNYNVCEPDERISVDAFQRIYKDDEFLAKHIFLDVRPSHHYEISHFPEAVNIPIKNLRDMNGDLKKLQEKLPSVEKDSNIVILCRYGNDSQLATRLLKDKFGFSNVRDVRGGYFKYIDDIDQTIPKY
# B1: Thiocarboxylated ScUrm1 (natural protein)
# chain: MVNVKVEFLGGLDAIFGKQRVHKIKMDKEDPVTVGDLIDHIVSTMINNPNDVSIFIEDDSIRPGIITLINDTDWELEGEKDYILEDGDIISFTSTLHGG
# modifications: thiocarboxylate at the C-terminus
# Target: T1, ScUba4 (Saccharomyces cerevisiae Uba4)
# Assay: SEC
binder,measurement,value
B1,binding result,binds
